According to doi:10.1101/2024.07.16.603715:

Target: PTPRD/S (signal of the anti-PTPR blot in BN-PAGE)
Assay: native gel or EMSA

stoichiometry N: 1
Substance: tetraspanin T178B (natural protein)
